Measurements published in the DeepSol protein solubility set.

Assay: soluble on expression in E. coli; label from the status in PepcDB or PDB records

Soluble on expression in E. coli, not soluble:
MGSDKIHHHHHHMSIPIIDLSQFQISNQVRRQNVVKNIYQACHEIGFMYIQNSGISPDLLEQVFSASKSFFDSPLAVKEQLAWNNEFINTGYVGLEREHLNPNQPGDLKEAFNIKNDIIINNFSSPILLTNNPVISTFYNACTELANTVLQAFALALELPEYFFTTRHNQKNHTLRLLHYPPLQTSPKPGQVRAGEHSDYGSLTLLFQHAVGGLEVQTTRKEWIAAPLIPGMVLVNTGDLMQRWTNHIFCSTKHRVMIPNDERVKKSRYSIAFFCHPNDDTEIACLESCSQRQSPIYPPILAGEYLLSSLQLTY, MGSDKIHHHHHHMSKDCTIQDVFHRFYSSFESTHSISPAQRKAAYHIMNCKTGAFGVNVSVCEDCGCISVHYNSCRDRCCPMCQEFPKEKWVDARREDILDAPYFHVVFTVPEELNPIIYSNQKFLYAALYHAASDTLSELAADSKYLGTDIGYICILHTWGSTMNFHPHIHAIVLGGGLDVKNHWKDNGKDFFLPIKVISKTFRGKYMAELKQLWENDRLEFHGSAAPYKNHYTFKELLNTCYAKEWIPYCKKPFDGAESVIRYLGKYTHRIAISNYRIKDMTESTVTFSAKDYKNQGLWKEITISGEEFIRRFLMHVPPKRFVRIRHYGLLSSRNKKKKITLCRNILGCKKYISKLKDMDAPAIIRLLYNKDICKCSSCGGKIIPLPTEQHFIKPKPHMLC, MGSDKIHHHHHHMSKHQNDNPRVPHEAAPLRVLHVGPGQGQRGGIASVLAELSAQRARFRDAGVVVAIFETHGFQSMRSLLCFPLVDIPRFLFAVLKGVDLIHFHVSVRGSFYRKFLLYLLARLFGKRTIFHLHAGNFQDFWASNGPTTRKAVSRFIRGADAVVAVSSAIASELQGHQGVTRNLYVIGNTAYSAELAAGAALRDSSGGKRVDMTPYVAFAGRFTEGKGLDELLRAVAALNRRGLKVQLRLAGAGDMDRWTRAAIEYGVSDQVRFVGWLQGDAKLEFYRDAAVFCMPSHFEAFGISTLEAMFIGRPVIGTRVGGFLDLVEEGVTGYLVRCGDSHGLAERIRHLVERPELAHEMGRQAVSRALSRYSVDAIVSQYARCYRQVNGSRGA, MGSDKIHHHHHHMSKIDELVFTPKQQDTITFPFQNVTLEVNEGTPRSGKTTADIFKMAYIYSISEDQNHLVTAYNQEQAFRLFMDGDGFGLMHIFGNLAEMKHDEHGDHLLIHSPNGPKKIYYKGGGKINSVGAITGMSLGTVTFLEINLLHKDFIEECFRRTFAAKNRFHLAELNPPAPNHPVLEIFSQYEKSGRYKWRHWTAKDNPALSDERKQEIYNEVKHSAYLLQRDWYGKRVLPAGIIYETFDVEANQIKKMQGHPIEMVFFGDGGQQDATVCECYVITEHEAEGGYTYNLNQVATYYHSGRDTGQVKAGSTYAIEIKQFIQWCMKEYEVPVNEPVFIDPACRWLREELEKVGVDTAGADNNAHDVTGKAQGIEVGIERMQSLLSERRYLLVEQPNDQYDHYSWLQEIGMYVRDENSGKPVDKNNHAMDTSRYATNYFYRNYEDI, MGSDKIHHHHHHMSKIKVALLVDEYFGGAKTKYGGYGFLARHLVAKHLPDDQVDVDVLLKKDCGKVRLWPKCFMVDGIRVYKLAARAFDWVNNLFLRQKNYDVFLSIEMTTHSYRIFSKAPGKNKKLLFWIQDPRPTYEWDEIQTVKLFPEPSYWDAEIYDFVNQYARSGNVRFISQAKCLDQKARDLYRLPANTSINYLPNPIEIDETFDLDSFPKQNSIIFLGRIESVKRGWLFAEIAKAMPQCQFYMLGQAHRQADENNAVMSGYQAIPNLHFVGHVEGEQKNRFLKEAKVLVNTSIHEALPISFLEALSYGTLLVSCQNPDELASKFGVYTGKVLGDGFDKVELFVAGINQLLTNDDHRHQLAKDAIAYIKEVHSLSRFTGDIKHELLTLCASRNEPVKATGRTTTSTVQ, MGSDKIHHHHHHMSKPLNFVMISPHFPANFETFAVRLKECGFNTLGIADTPYEQLSENLRNSLTEYYRVDNMEDYEQVYRAVGYFAHKYGRIDRIESHNEYWLELDAKLRTDFNVPGYKNDDMLAIKTKAQMKEIFRQAGLKVAQGKVFNSDDEARKLAKKLKFPVIIKPNSGVGASDTYKIKSVQELEDFFSYKNAHVEYIMEEFIDGDIITFDGLTDKEGNIVFYSGLEYSECVLDTVENDNDMFYYVPREISTDLIKLGQKCVDAFNVRERFFHFEFFRVKKTGDLMPLEINCRPPGGLTIDMWNYANDFDVFREYANIVKENKFYTNITHPWNVVYISRKANKNYVNAIEDVQQKYSTNIISVQTVPGVFAKIMGEHGILARTETLDQMHEIAQFAQQKA, MGSDKIHHHHHHMSKPSRWPLTADGIRFITPHVLVKRLQNHALAKGLFVTAMGYYPTASGHAMERKGHPDHILIYCTAGSGFLTMAGKTTEINSGDIFYLPAGSQHSYQASKELPWTLYWLHFDGTLANDFCQHINIVERKFTIGVQPRVIRVFDGISHLRHSSHNLAEFIQGGHQVQALLSYIALLVQQRKPSAINTFDTENLRAMMQEHIHSKLDLDSLAEAAKLSKYHFSKKFKQVTGESPISYFINMKMQRACYLLDSTPRSVKHVASELGYHDTYYFSRLFKKNIGMAPAIYRKAKL, MGSDKIHHHHHHMSKVFIIGLPRTGTTSISVALLEMGLSVAHTAFTKKAFEMADAVTDAPCFSDYMHLDRIFPHAKFIYLTREMAKWVPSIIMLLEKMAPHLDPKTGKFNPILKRSFHHTFPGTLPLTENELIDCYTRHEQAVLSYFEGRDDFLSIDISKQGSLLEMKMFLGIEAQGSADFPKLNVGRDVASWKDYKHPNKINSNLAGVEHRKYYDYALVDYRTY, MGSDKIHHHHHHMSLAQFQSVECADCPIRHRAVCARCDADELEALDAIKFYRSYEAGQTVVWSGDQMNFVGSVVSGIATLTQTMEDGRTQMVGLLLPSDFVGRPGREGSAYDVVATTDVIMCCFRKKPFEDLMVRTPHIAHRLLEMTLDELDAAREWMLVLGRKTAREKIASLLSIIARRDASLAVDPSNGAVSFDLKLTREAMADYLGLTLETVSRQISALKKAGVIQLEGKRHVTVPDMHRLIEEAGDDSDGGVLG, MGSDKIHHHHHHMSLEGLSINFATVRQGGNFGAIVDACLAHGITAISPWREQVHGVGLAEAARIVEQNGLRLSGHCRGGFFPAIDADGRRRAIEDNKRAVDEAAAMKADCLVLVVGGLPAGSRDLKGARQMVEDGMAKLLPYARAAGVPLAIEPLHPFYAAERACFNTLKQSLDLCDRLGAGTGVAIDVYHVWWDPELEEQVARAGRNGQILAHHICDWLVPTTDPLNDRGMMGDGVIDLKAFRAMIEAAGFHGPQEVEIFSHRWQARPMDEVLATVVERFKTVC, MGSDKIHHHHHHMSLFNLSLVTFEIDHEDCWSKLTSSFPVQVKTIFAKPSKGKDYILGMDEVKTYNRRVFKDFLKSFKKEKSIYEIIQILELDSRRGIYRILFKERYENMIMSIIENYMTLYIKDLIKEGNERLLLIMPSSDVTMLKRDLESIGKIHYFNAKLVNFNDFVPTFFDFSEQERNAVLHAIRLGYYEYPRRINLEELGKIMGISKPTLEEYLRKAEKKIMSKIFREFYQQDLLFHSPDY, MGSDKIHHHHHHMSLNLRDLEYFYQLSKLRSFTNVAKHFRVSQPTISYAIKRLETYYDCDLFYKDSSHQVVDLTPEGELLAMRTNEILSELNHTKKAIHRSSMKDFKVGFPPIISSYLLSKQDNLNFFNALHMIYGGSNELLSLLLNEEIDSSLLGSLEKIKHPQLEIEELFQKEFFIIMSDSHPLANEKELGFKDLLNEDFILLGEHNIHFNAFNRLNEKYNQSANVVLKLDDAHTIKELVRKNLGISLMADIRLSEDFKNLVKVPFIEEDKQFFHINYAYQKNSILSESEKNFLEILKTLK, MGSDKIHHHHHHMSLSAEQIVEYRAFAEQLADAAAAAIAPYFRASLDVEDKGGRLYDPVTVADKAAEDAMRELIQARYPEHGILGEEAGIAVGSSPLTWVLDPIDGTRAFITGLPLWGTLIALNDGARPVLGVMNQPFTGERFVGTPAGAWRSGTPLKTRACADLSAATLMCTTPDMFDTAERKAAFEAVAGKARLMRYGGDCYAYCMLASGFVDVIVEASLQPYDVQALMPIIEGAGGVITAWDGSSAQDGGCVVACGDPVLHAQVLEMLRHAM, MGSDKIHHHHHHMSMVSSGNYAEVEKVLTEYPYIAELADHLRDQKMKVIENLDSYVSLTIKNVERLGGHAYLAKDKEEARKIAGDLVGDNKTVVFSKTNVAYEIGLREYLESKHNEVWETDLGEYLIQISKGWPTHIVAPALGMTREDAAKAVKKIDPSINENSTIEDVVAAVRKFLMSKYVKADVGITGANAVAADSGAIALVENEGNIRIDTVMPQTHISITGIDKIVPTLRDALDEVMVQSAYAGLFPPTYINVTAGPSSTADIELRRVSPATGPKNFHLILLDDGRMDASKDEGLKEALLCIKCGRCYFSCPIYRVLGKEWVSTKSPYNGPTGVMWNYITNKDPWPASYCVHSGGCKEVCPMRINIPEVIKYIKYLGSKSL, MGSDKIHHHHHHMSNDIDLIKRLGPSAMDQIMLYLAFSAMRTSGHRHGAFLDAAATAAKCAIYMTYLEQGQNLRMTGHLHHLEPKRVKIIVEEVRQALMEGKLLKTLGSQEPRYLIQFPYVWMEQYPWIPGRSRIPGTSLTSEEKRQIEHKLPSNLPDAQLVTSFEFLELIEFLHKRSQEDLPPEHRMELSEALAEHIKRRLLYSGTVTRIDSPWGMPFYALTRPFYAPADDQERTYIMVEDTARYFRMMKDWAEKRPNAMRALEELDVPPERWDEAMQELDEIIRTWADKYHQVGGIPMILQMVFGRKED, MGSDKIHHHHHHMSNGGRLVSQLEAEGSTHLTLPIHKKSLSSLWQIRPLRQLIEEHQPDIVHVRSRVPAWLTHFALRKIPANKRPHLISTVHGFYSVNRYSAIMTQAEKVIAVSDSVVKYITDHYKNCPPQDIVRIYRGIDPAAFPHNYQPSAQWFNQVFNDFPELENKFLLCLPGRITRLKGHESLIELMQQLHSQYPQLHAVIVGGADVKKQAYLSELQNTIQSKGLADKITFVGHRSDIREWLAFSDIVLSLSNQAETFGRTALEALSVGTPVIGWNRGGVAEILSHVYPQGLVEAENEKALLETVKHHIEQPQTVAPVTMFSLKDMCDQTLELYQSVLN, MGSDKIHHHHHHMSNSSIKSKTALLRNGETQKGNGYPEANDYSARILETMQTGVVFFNTEQIISGINNLACEDLQIPRDPSGHKITDIISIIHQEKDIFPELIARLKSSETDMEKLPIDTLIRSLETKVQFFASGCIMQLETGRYLLAFRNTMDEVTHEHLLSMILARTKIFPWFFDLKRNKMLIDAHWFSYLGIPAGDCEITIEKFFSRVHPNERDMLADALQKQLSEKEIPDSFSYRLQRGDGSWEWFSEQSMYLSKTNDGSPYRIVGVCHSIQEHKNTEDKLRAARNKAQESDRLKSAFLANMSHEIRTPLNAIVGFSNLIAGGIVDLDTEEARDYSALISKNCNYLLTLVSDVLDLSCIESDTMTFKFTVYPLTRLLTEIYQKYENRIPQEVQFNLLLPTDNVEIETDAVRLRQVIEHLLDNAAKFTVKGHIDIGYALSDHGEKIYVFVADTGCGIPSDQYKKVFERFYKINSFVQGAGLGLSVCKTIVEGLGGTINVYSQLKEGSRFSVILPLNRLHK, MGSDKIHHHHHHMSNVTAEQKKEVKGRGFLPSRDGEHFAARIITVNGVINASQAKKIAEAAEKFGNGQLAFTTRLTVELPGVKFEDIEALSEFIASENLITGGTGSRVRPVVACKGTVCVHGLADTQALAAEIHEEFYKNWYDVKLPHKFKIGVGGCPNNCIKPDLNDLGIVGQRVPDYDSELCVGCKKCAVVEVCPVKAAKLTDKGKLEIDSNLCNNCGKCIESCNFDSIEEKESGYKVYIGGKWGKSVRPGTQIDRLFSKEELMTLIEKAILLFREQGNTGERFGITIDRIGADKFIEMLLSDEVLERKEEILEALLHLTGGAVC
